Measured values taken from patent US20220281981A1 (INVECTYS, published 2022).

Assays:
[1] = biological target: T1, HLA-G1/5 β2M-free (human, UniProt P17693 25-298, limits assumed); test: flow cytometry, titration of 15E7, readout % of binding
T1 construct: Printed as one antigen, 'HLA-G1/5 β2M-free'; also called HLA-G1/β2M free; HLA-G5/β2M free

[2] = biological target: HLA-G6 (human, UniProt P17693-6 25-227, limits assumed); test: as above
[3] = biological target: T2, HLA-G1 β2M-associated, on lentivirus-transduced cells (Jurkat HLA-G1Lv, K562 HLA-G1Lv) (human, UniProt P17693 25-338; P61769 21-119); test: flow cytometry on Jurkat HLA-G1Lv and K562 HLA-G1Lv cells, GAM-PE detection
T2 construct: whole, on cells; also called HLA-G1 B2M-associated
Experimental: Flow cytometry analyses were performed using LSR FORTESSA (Beckton Dickinson, Le Pont-de-Claix, France); data were analyzed with FlowJo X software (Tree star, Ashland, USA).

B1: 15E7 monoclonal antibody (antibody, V domains shown)
VH: QVQLQQPGAELVRPGSSVKLSCKASGYTFTDYWMDWVKQRPGQGLEWIGTIYPSDSSTHYNQEFKGKATMTVDKSSSTAYMHLSSLTSEDSAVYYCAREGLAGVFYFDYWGQGTTLTVSS
VL: DVLMTQIPFSLPVSLGDQASISCRSSQSIVHRSGNTYLEWYLQKPGQSPKLLIYKVSNRFSGVPDRFSGSGSGTDFTLKISRVEAEDLGVYYCFQGSHLPPTFGGGTTLEIK
notes: Tested as a monoclonal antibody in flow cytometry and detected with goat anti-mouse IgG; also called 15E7 antibody; anti HLA-G-α3 β2M-free 15E7 antibody
EC50 (read off the curve) [1]: ~0.02 µg/mL | EC50 (read off the curve) [2]: ~0.1 µg/mL | binding result [3]: no binding
